In article doi:10.1101/2021.07.02.450967 (bioRxiv, 2021):
Where “and” joins values, the source holds several entries; their conditions need not be identical. Equal values may be shown once.

Target: T1, SOX7, made in the cell-free protein production system (UniProt Q9BT81 1-388)
T1 sequence: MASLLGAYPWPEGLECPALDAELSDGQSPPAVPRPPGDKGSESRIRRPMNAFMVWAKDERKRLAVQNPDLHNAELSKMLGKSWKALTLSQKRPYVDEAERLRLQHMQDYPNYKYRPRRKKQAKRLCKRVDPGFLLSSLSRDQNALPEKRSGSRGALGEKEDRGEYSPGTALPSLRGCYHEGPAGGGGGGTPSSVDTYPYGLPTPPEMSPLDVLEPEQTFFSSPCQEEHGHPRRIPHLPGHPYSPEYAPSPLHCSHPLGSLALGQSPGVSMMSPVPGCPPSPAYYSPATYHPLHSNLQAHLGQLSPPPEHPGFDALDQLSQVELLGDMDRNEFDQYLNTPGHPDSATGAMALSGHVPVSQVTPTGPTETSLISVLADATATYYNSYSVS
Assay: single molecule two-colour coincidence spectroscopy

B1: HEY1, made in the cell-free protein production system (natural protein)
chain: MKRAHPEYSSSDSELDETIEVEKESADENGNLSSALGSMSPTTSSQILARKRRRGIIEKRRRDRINNSLSELRRLVPSAFEKQGSAKLEKAEILQMTVDHLKMLHTAGGKGYFDAHALAMDYRSLGFRECLAEVARYLSIIEGLDASDPLRVRLVSHLNNYASQREAASGAHAGLGHIPWGTVFGHHPHIAHPLLLPQNGHGNAGTTASPTEPHHQGRLGSAHPEAPALRAPPSGSLGPVLPVVTSASKLSPPLLSSVASLSAFPFSFGSFHLLSPNALSPSAPTQAANLGKPYRPWGTEIGAF
  stoichiometry N: 1 HEY1 per SOX7 (1:1) and 2 HEY1 per SOX7 (1:2, order as printed)
